Measurements: patent US20200055935A1 (AGENCY FOR SCIENCE TECHNOLOGY AND RESEARCH, published 2020)

Molecular target: T1, human TIM-3 coupled to Fc (human, UniProt Q8TDQ0 22-200, limits assumed)
T1 construct: Immobilised on the SPR sensor chip; not shown: Fc part
Assay: SPR (ProteOn XPR36), human TIM-3-Fc immobilised, antibody in flow
Description: In order to select some leads amongst the ELISA-positive clones, TIM-3 association/dissociation profiles were analysed by Surface Plasmon Resonance (SPR). Briefly, human TIM-3 coupled to Fc was immobilised on sensor chip and the antibodies were then applied as a flow onto the chip. Association and dissociation rates were recorded using a ProteOn XPR36 bioanalyser (Biorad). Nine clones (1B9, 1H9, 1H10, 2C7, 2F4, 2G6, 1D9, 1F4, 2C8) were selected based on their rapid/strong association to TIM-3 and their slow dissociation from the protein (FIG. 5).

Binder	binding result
anti-TIM-3 antibody clone 1H10 (antibody, V domains shown) VH: QVQLQQWGAGLLKPSETLSLTCAVYGGSFSGYYWSWIRQPPGKGLEWIGEINHSGSTNYNPSLKSRVTISVDTSKNQFSLKLSSVTAADTAVYYCARGYVAGFDSWGQGTLVTVSS VL: QSVLTQPPSVSAAPGQKVTISCSGSSSNIGNNYVSWYQQLPGTAPKLLIYGNNWRPSGIPDRFSGSKSGTSATLGITGLQTGDEADYYCDSWDYDYAAGVFGGGTKLTVL	binds
anti-TIM-3 antibody clone 1F4 (antibody, V domains shown) VH: QVQLQQWGAGLLKPSETLSLTCAVYGGSFSGYYWSWIRQPPGKGLEWIGEINHSGSTNYNPSLKSRVTISVDTSKNQFSLKLSSVTAADTAVYYCARGYVAGYDYWGQGTLVTVSS VL: QSVLTQPPSVSAAPGQKVTISCSGSSSNIGNNYVSWYQQLPGTAPKLLIYGNNWRPSGIPDRFSGSKSGTSATLGITGLQTGDEADYYCDSWDAALSAGVFGGGTKLTVL	binds
anti-TIM-3 antibody clone 1D9 (antibody, V domains shown) VH: QVQLQQWGAGLLKPSETLSLTCAVYGGSFSGYYWSWIRQPPGKGLEWIGEINHSGSTNYNPSLKSRVTISVDTSKNQFSLKLSSVTAADTAVYYCARGYYAGDDYWGQGTLVTVSS VL: QSVLTQPPSVSAAPGQKVTISCSGSSSNIGNNYVSWYQQLPGTAPKLLIYGNNWRPSGIPDRFSGSKSGTSATLGITGLQTGDEADYYCEAWDSAYAAGSFGGGTKLTVL	binds
anti-TIM-3 antibody clone 2C7 (antibody, V domains shown) VH: QVQLQQWGAGLLKPSETLSLTCAVYGGSFSGYYWSWIRQPPGKGLEWIGEINHSGSTNYNPSLKSRVTISVDTSKNQFSLKLSSVTAADTAVYYCARGYVAGYDYWGQGTLVTVSS VL: QSVLTQPPSVSAAPGQKVTISCSGSSSNIGNNYVSWYQQLPGTAPKLLIYGNNWRPSGIPDRFSGSKSGTSATLGITGLQTGDEADYYCDSWDSYLAAGVFGGGTKLTVL	binds
anti-TIM-3 antibody clone 1H9 (antibody, V domains shown) VH: QVQLQQWGAGLLKPSETLSLTCAVYGGSFSGYYWSWIRQPPGKGLEWIGEINHSGSTNYNPSLKSRVTISVDTSKNQFSLKLSSVTAADTAVYYCARGYVAGFDDWGQGTLVTVSS VL: QSVLTQPPSVSAAPGQKVTISCSGSSSNIGNNYVSWYQQLPGTAPKLLIYGNNWRPSGIPDRFSGSKSGTSATLGITGLQTGDEADYYCDSWDSADASGVFGGGTKLTVL	binds
anti-TIM-3 antibody clone 2F4 (antibody, V domains shown) VH: QVQLQQWGAGLLKPSETLSLTCAVYGGSFSGYYWSWIRQPPGKGLEWIGEINHSGSTNYNPSLKSRVTISVDTSKNQFSLKLSSVTAADTAVYYCARGYVAGSDAWGQGTLVTVSS VL: QSVLTQPPSVSAAPGQKVTISCSGSSSNIGNNYVSWYQQLPGTAPKLLIYGNNWRPSGIPDRFSGSKSGTSATLGITGLQTGDEADYYCESWDYDYASGVFGGGTKLTVL	binds
anti-TIM-3 antibody clone 1B9 (antibody, V domains shown, also called 169) VH: QVQLQQWGAGLLKPSETLSLTCAVYGGSFSGYYWSWIRQPPGKGLEWIGEINHSGSTNYNPSLKSRVTISVDTSKNQFSLKLSSVTAADTAVYYCARGYVAGSDAWGQGTLVTVSS VL: QSVLTQPPSVSAAPGQKVTISCSGSSSNIGNNYVSWYQQLPGTAPKLLIYGNNWRPSGIPDRFSGSKSGTSATLGITGLQTGDEADYYCEAWDYYVAAGYFGGGTKLTVL	binds
anti-TIM-3 antibody clone 2G6 (antibody, V domains shown) VH: QVQLQQWGAGLLKPSETLSLTCAVYGGSFSGYYWSWIRQPPGKGLEWIGEINHSGSTNYNPSLKSRVTISVDTSKNQFSLKLSSVTAADTAVYYCARGYVAGFDSWGQGTLVTVSS VL: QSVLTQPPSVSAAPGQKVTISCSGSSSNIGNNYVSWYQQLPGTAPKLLIYGNNWRPSGIPDRFSGSKSGTSATLGITGLQTGDEADYYCDSWDSSDSSGVFGGGTKLTVL	binds
